# What was measured:
# mono-ubiquitin = mono-ubiquitin (UniProt P0CG48 1-76); assay: crystal structure
# SEC-MALS = biological target: the molecule itself; assay: SEC-MALS
Binder,binding result (mono-ubiquitin),stoichiometry N (SEC-MALS)
"2CARD^RIG-I(E52A) (domain or fragment, human, UniProt O95786 1-188, looked up) MTTEQRRSLQAFQDYIRKTLDPTYILSYMAPWFREEEVQYIQAEKNNKGPMAAATLFLKFLLELQEEGWFRGFLDALDHAGYSGLYEAIESWDFKKIEKLEEYRLLLKRLQPEFKTRIIPTDIISDLSECLINQECEEILQICSTKGMMAGAEKLVECLLRSDKENWPKTLKLALEKERNKFSELWIV",binds,
"2CARD^RIG-I(E52A)-CARD^MAVS(KKK) fusion protein, 42 aa linker (other) MTTEQRRSLQAFQDYIRKTLDPTYILSYMAPWFREEEVQYIQAEKNNKGPMAAATLFLKFLLELQEEGWFRGFLDALDHAGYSGLYEAIESWDFKKIEKLEEYRLLLKRLQPEFKTRIIPTDIISDLSECLINQECEEILQICSTKGMMAGAEKLVECLLRSDKENWPKTLKLALEKERNKFSELWIVMPFAEDKTYKYICRNFSNFCNVKVVKILPYLPCLTARDQDRLRATCTLSGNRDTLWHLFNTLQRRPGWVEYFIAALRGCKLVDLADEVASVYQSYQP",,4

# From article PMC4142144 (Molecular cell, 2014)
